Patent publication US7179650

Experiments:
[1] = target: P53 (yeast two-hybrid control); experiment: yeast two-hybrid β-galactosidase filter assay (control pair)
[2] = target: pGBT9-Fas (191-319AA): intracellular domain of Fas/APO-1 fused to the GAL4 DNA-binding domain (human); experiment: yeast two-hybrid β-galactosidase filter assay

P53 (yeast two-hybrid control), sequence (P02340 72-390): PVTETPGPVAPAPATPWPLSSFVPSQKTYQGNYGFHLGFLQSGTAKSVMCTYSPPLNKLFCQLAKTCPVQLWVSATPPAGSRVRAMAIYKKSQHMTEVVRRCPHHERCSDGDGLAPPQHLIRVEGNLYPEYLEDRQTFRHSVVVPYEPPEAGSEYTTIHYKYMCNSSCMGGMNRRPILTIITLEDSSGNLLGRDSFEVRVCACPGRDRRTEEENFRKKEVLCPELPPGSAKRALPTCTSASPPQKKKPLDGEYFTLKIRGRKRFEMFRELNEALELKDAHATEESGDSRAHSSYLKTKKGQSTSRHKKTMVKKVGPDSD

| Substance | time for the colony to turn blue [1] | time for the colony to turn blue [2] |
| --- | --- | --- |
| SV40 T antigen (yeast two-hybrid control) (from UniProt P03070 84-708) | < 30 min |  |
| Clone 68: in-frame fusion of the Gal4 activation domain to the death domain of FADD/MORT1 (from UniProt Q13158 80-208) |  | < 3 h |
| Sentrin-1 (SEQ ID NO:2) fused to the Gal4 activation-domain (from UniProt A7WLH8 1-101) |  | < 3 h |
